# How the values were obtained:
# [1] = tested on: T1, N[C@@H](Cc1c[nH]c2ccccc12)C(=O)O; assay: L-tryptophan degradation by tryptophanase, kinetic and inhibition analysis (indole formation, Ehrlich reagent); format: biochemical, E. coli; settings: other: L-tryptophan degradation, pH 8.3
# T1 construct: purchased Sigma-Aldrich Co. (St. Louis, MO, USA)
# Description: When tryptophanase degraded L-tryptophan, all reaction mixtures included 0.2 mM of pyridoxal 5′-phosphate and 0.23 μM of tryptophanase in 100 mM potassium phosphate buffer of pH 8.3. DAP concentrations were prepared to the required concentrations of 0, 0.6, 1.2, 1.9 or 3.1 M. L-tryptophan. The reaction mixture was prepared to a concentration of 98, 108, 128, 137, 147, 167, 196, 225, 245, 294, 343, 392, 490, 680 or 980μM for kinetic analyses. Reactions were performed at 37 °C for 30 min in a Dry Thermo Unit DTU-1B (Taitec, Tokyo, Japan). Although D-tryptophan in addition to L-tryptophan was also degraded into indole in the presence of DAP, an indole production amount from D-tryptophan was neglected at this reaction temperature and time because the catalytic efficiency for D-tryptophan was 0.3% of that for L-tryptophan. On the other hand, the reaction condition of D-tryptophan degradation differed in several ways from that of L-tryptophan degradation. Each concentration of pyridoxal 5′-phosphate and tryptophanase was 1.2 mM and 0.92μM, and additionally reaction temperature and time was 55 °C and 2 h, respectively. All the other reaction conditions were the same as in the L-tryptophan degradation.
# The total volume of the reaction mixture was 2 mL per tube. The reaction was stopped by adding 2 mL of n-butanol, which was vigorously mixed and then immediately centrifuged at approximately 1,000 G for 10 min. After centrifugation, the reaction mixture was separated into two layers of butanol and aqueous solutions in which indole was equally distributed. The supernatant butanol layer was extracted to be mixed with an equal volume of Ehrlich reagent, then colored red at 60 °C for 30 min in Dry Thermo Unit. […] Tryptophanase activity was assayed in triplicate at the same substrate concentration and then averaged. Initial velocity was computed based on the averaged value.
# (§1) Initial velocities were defined by indole that formed within 1 minute after 1 mg of tryptophanase was added. Then the reciprocal of (initial velocity/[E] (enzyme concentration)) (ordinate) versus the reciprocal of substrate concentration (abscissa) was drawn for each concentration of L- or D-tryptophan. These double-reciprocal plots were drawn based on the least squares method to calculate kinetic parameters. Kcatwas determined from the reciprocal of the intercepts of these double-reciprocal plots, and the Michaelis constant Km from substrate concentration at 1/v = 0 in the absence of inhibitor. In noncompetitive inhibition, two inhibition constants of Ki (=[E][I]/[EI], E: enzyme; I: inhibitor; EI: enzyme-inhibitor complex) and Ki' (=[ES][I]/[ESI], ES: enzyme-substrate complex; ESI: enzyme-substrate-inhibitor complex) were determined from the slopes and from the intercepts, respectively. In the mixed type inhibition, Ki and Ki' were determined from x and y coordinates of the fixed point in the second quadrant.
# [2] = tested on: T2, N[C@H](Cc1c[nH]c2ccccc12)C(=O)O; assay: D-tryptophan degradation by tryptophanase in the presence of 3.1 M DAP, kinetic and inhibition analysis; format: biochemical, E. coli; settings: other: 3.1 M DAP, 55 °C, pH 8.3
# T2 construct: purchased Sigma-Aldrich Co. (St. Louis, MO, USA)
# Description: When tryptophanase degraded L-tryptophan, all reaction mixtures included 0.2 mM of pyridoxal 5′-phosphate and 0.23 μM of tryptophanase in 100 mM potassium phosphate buffer of pH 8.3. DAP concentrations were prepared to the required concentrations of 0, 0.6, 1.2, 1.9 or 3.1 M. L-tryptophan. The reaction mixture was prepared to a concentration of 98, 108, 128, 137, 147, 167, 196, 225, 245, 294, 343, 392, 490, 680 or 980μM for kinetic analyses. Reactions were performed at 37 °C for 30 min in a Dry Thermo Unit DTU-1B (Taitec, Tokyo, Japan). […]
# as §1, with “Then the reciprocal of (initial velocity/[E] (enzyme concentration)) (ordinate) versus the reciprocal of substrate concentration (abscissa) was drawn for each concentration of L- or D-tryptophan. These double-reciprocal plots were drawn based on the least squares method to calculate kinetic parameters.” left out
substance,measurement,setting,value
tryptophanase (Escherichia coli K-12),Km,[1]; DAP 0 M,300 µM
same,kcat,[1]; DAP 0 M,0.4 s⁻¹
same,kcat/Km,[1]; DAP 0 M,1300 M⁻¹ s⁻¹
same,Km,[1]; DAP 0.6 M,200 µM
same,kcat,[1]; DAP 0.6 M,0.18 s⁻¹
same,kcat/Km,[1]; DAP 0.6 M,900 M⁻¹ s⁻¹
same,Km,[1]; DAP 1.2 M,200 µM
same,kcat,[1]; DAP 1.2 M,0.15 s⁻¹
same,kcat/Km,[1]; DAP 1.2 M,800 M⁻¹ s⁻¹
same,Km,[1]; DAP 1.9 M,200 µM
same,kcat,[1]; DAP 1.9 M,0.11 s⁻¹
same,kcat/Km,[1]; DAP 1.9 M,600 M⁻¹ s⁻¹
same,Km,[1]; DAP 3.1 M,200 µM
same,kcat,[1]; DAP 3.1 M,0.07 s⁻¹
same,kcat/Km,[1]; DAP 3.1 M,400 M⁻¹ s⁻¹
same,Km,[2],600 µM
same,kcat,[2],0.07 s⁻¹
